# Measured values: patent US20070190574A1, “Diagnostic method for identifying carriers of the Marburg I variant of factor VII-activating protease (FSAP) on the basis of differential modulation of FSAP activity” (DADE BEHRING MARBURG GmbH, priority 2005, published 2007)
# Values joined by “and” are separate entries in the source; they are usually repeats but may differ in a detail not shown here. Equal values may be shown once.
# Key:
# Assay type in all cases: biochemical
# [1] = molecular target: T1, FSAP wild type (Homo sapiens, UniProt Q14520); experiment: Prourokinase-activating activity of FSAP with and without aprotinin (S-2444), wild-type plasma samples
# T1 construct: found for a plasma sample of a non-carrier (wild type); from tissue
# T1 sequence (Q14520 24-560): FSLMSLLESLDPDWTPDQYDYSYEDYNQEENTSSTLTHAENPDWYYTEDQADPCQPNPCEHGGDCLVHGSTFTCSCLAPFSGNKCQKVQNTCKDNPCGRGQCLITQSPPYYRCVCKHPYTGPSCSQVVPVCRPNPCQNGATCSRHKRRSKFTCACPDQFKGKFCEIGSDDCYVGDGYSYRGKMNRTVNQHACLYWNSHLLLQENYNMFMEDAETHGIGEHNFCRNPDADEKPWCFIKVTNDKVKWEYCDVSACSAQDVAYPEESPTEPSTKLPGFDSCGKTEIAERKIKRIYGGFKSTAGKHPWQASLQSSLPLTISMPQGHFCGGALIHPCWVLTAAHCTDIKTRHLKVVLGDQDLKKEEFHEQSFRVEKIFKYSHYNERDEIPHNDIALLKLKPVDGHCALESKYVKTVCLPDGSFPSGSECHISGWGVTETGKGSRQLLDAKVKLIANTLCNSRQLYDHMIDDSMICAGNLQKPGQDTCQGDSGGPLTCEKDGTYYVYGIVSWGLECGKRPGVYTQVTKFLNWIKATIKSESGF
# Procedure: (§1) An anti-FSAP antibody produced via the hybridoma cell line DSM ACC2453 was used as solid phase-associated binding partner having affinity for FSAP. Polystyrene microtiter plates (MTPs) were used as solid phase for carrying out the heterogeneous detection method. Anti-FSAP antibodies in 50 mM NaHCO3, pH 8.2, were associated onto the polystyrene solid phase with a coating volume of 120 μl per well of the MTP and a coating concentration of 20 μg of antibody per ml at room temperature overnight. Unbound antibodies were removed by washing three times with 50 mM sodium phosphate-buffered isotonic NaCl solution, 0.02% Tween® 20, pH 6.5.
# (§2) In each case 100 μl of a plasma sample to be determined were pipetted in a dilution of 1:80 in sample buffer (20 mM sodium citrate, pH 6.0, with 150 mM NaCl, 100 mM L-arginine monohydrochloride, 1% bovine serum albumin, 0.1% Tweene® 80, 100 I.U. of heparin/ml) into the wells. After incubation at +37° C. for one hour, unbound constituents were removed by washing three times with 50 mM sodium phosphate-buffered isotonic NaCl solution, 0.02% Tweene® 20, pH 6.5.
# (§3) The change in absorption (OD) of the reaction mixtures was followed at a wavelength of 405 nm. A differentiation between carriers and non-carriers of the FSAP MR I variant is possible through the formation of a quotient between vmax of the reaction kinetics of a sample without added aprotinin (vmax0) and with added aprotinin (vmax aprotinin). The following applies thereto: • FSAP wild type vmax0/FSAP wild type vmax aprotinin>FSAP MR I vmax0/FSAP MR I vmax aprotinin.
# (§4) The maximum slope of the time-conversion plots was determined by linear regression in a sufficiently linear region of the time-conversion plot and afforded the maximum reaction rate vmax of a reaction in mOD/min.
# [2] = molecular target: T2, FSAP MR I variant (Homo sapiens, UniProt Q14520, G534E); experiment: Prourokinase-activating activity of FSAP with and without aprotinin (S-2444), MR I carrier plasma samples
# T2 construct: found for a plasma sample of a heterozygous carrier of the MR I polymorphism; from tissue
# T2 sequence (Q14520 314-560 G534E limits assumed): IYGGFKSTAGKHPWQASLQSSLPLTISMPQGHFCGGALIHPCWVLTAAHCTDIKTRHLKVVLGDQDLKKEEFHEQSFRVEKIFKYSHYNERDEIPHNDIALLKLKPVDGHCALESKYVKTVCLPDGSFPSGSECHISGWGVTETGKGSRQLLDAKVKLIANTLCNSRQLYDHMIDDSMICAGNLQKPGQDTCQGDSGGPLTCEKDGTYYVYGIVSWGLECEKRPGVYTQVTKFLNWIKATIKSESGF
# T2 sequence (Q14520 24-313 partner limits assumed): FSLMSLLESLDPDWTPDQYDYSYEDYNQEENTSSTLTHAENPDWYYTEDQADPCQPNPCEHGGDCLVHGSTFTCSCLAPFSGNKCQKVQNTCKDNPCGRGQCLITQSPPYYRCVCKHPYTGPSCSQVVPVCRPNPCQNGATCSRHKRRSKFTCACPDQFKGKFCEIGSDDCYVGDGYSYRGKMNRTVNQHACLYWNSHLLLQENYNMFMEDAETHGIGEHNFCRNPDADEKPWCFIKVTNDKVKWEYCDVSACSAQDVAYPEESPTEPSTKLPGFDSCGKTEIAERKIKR
# Procedure: as §1, §2, §3, §4
# [3] = molecular target: T1, FSAP wild type; experiment: Amidolytic activity of FSAP for S-2288 with and without aprotinin, wild-type plasma samples
# Procedure: (§5) The microtiter plates used were the same as described in example 1. In each case 100 μl of a plasma sample to be determined were pipetted in a dilution of 1:50 in sample buffer (see example 1) into the wells. After incubation at +37° C. for one hour, unbound constituents were removed by washing three times with 50 mM sodium phosphate-buffered isotonic NaCl solution, 0.02% Tweene® 20, pH 6.5.
# (§6) In order to reduce evaporation effects during the relatively long incubation time in the MTP, a layer of mineral oil was put on top.
# (§7) The change in absorption (OD) of the reaction mixtures was followed at a wavelength of 405 nm, and the maximum reaction rate vmax was determined (see example 1). Differentiation between carriers and non-carriers of the FSAP MR I variant is possible through the formation of a ratio (quotient) between vmax of the reaction kinetics of a sample without added aprotinin (vmax0) and with added aprotinin (vmax aprotinin). The following applies thereto: • FSAP wild type vmax0/FSAP wild type vmax aprotinin>FSAP MR I vmax0/FSAP MR I vmax aprotinin.
# [4] = molecular target: T2, FSAP MR I variant; experiment: Amidolytic activity of FSAP for S-2288 with and without aprotinin, MR I carrier plasma samples
# Procedure: as §5, §6, §7
# [5] = molecular target: T1, FSAP wild type; experiment: Change in amidolytic activity of FSAP (S-2288) on addition of activity modulator during the reaction, wild-type sample
# Procedure: (§8) The microtiter plates used were the same as described in example 1. In each case 100 μl of a plasma sample to be determined were pipetted in a dilution of 1:15 in sample buffer (see example 1) into the wells. After incubation at +37° C. for one hour, unbound constituents were removed by washing three times as in example 1.
# (§9) To determine the amidolytic activity of FSAP, at time t0 in each case 80 μl of the chromogenic substrate S-2288 (1.5 mmol/L; Chromogenix Instrumentation Laboratory S.p.A., Milano, Italy) in a 50:50 mixture of test buffer I and test buffer II (see example 1for test buffer I and 11) were put into the MTP wells and incubated at +37° C. in a photometer. After about 60 minutes, aprotinin was added in a final concentration of 2.95 KIU/ml or the respective monoclonal antibody (MAb) was added in a final concentration of about 60 μg/ml per reaction mixture. The change in absorption of the reaction mixtures was followed at a wavelength of 405 nm, and the maximum reaction rate vmax was determined (see example 1). In order to reduce evaporation effects during the relatively long incubation time, a layer of mineral oil was put on top.
# Differentiation between carriers and non-carriers of the FSAP MR I variant is possible through forming a ratio, for example the quotient of the maximum reaction rate before addition of the differential activity modulator (vmax) and the maximum reaction rate after addition of the differential activity modulator (vmax aprotinin).
# Three independent measurements were carried out on the sample of the non-carrier of the FSAP MR I variant (wild-type sample; WT). Six independent measurements were carried out on the sample of the heterozygous carrier of the FSAP MR I variant (MR I). The averages (Av.) of vmax/vmax activity modulator (vmax/vmaxA) and the standard deviations relating to the population (SD) were calculated. The negative control, i.e. addition of a corresponding volume of test buffer I and test buffer II in the ratio 50:50 without activity modulator afforded an Av. vmax/vmaxA of 0.81 +/− 0.12. […]
# [6] = molecular target: T2, FSAP MR I variant; experiment: Change in amidolytic activity of FSAP (S-2288) on addition of activity modulator during the reaction, MR I sample; settings: vmax before/after modulator added at about 60 min; aprotinin 2.95 KIU/ml, MAb about 60 μg/ml; six measurements; negative control 0.81
# Procedure: as §8
# as §9, with “In order to reduce evaporation effects during the relatively long incubation time, a layer of mineral oil was put on top.” left out
# Three independent measurements were carried out on the sample of the non-carrier of the FSAP MR I variant (wild-type sample; WT). […] The averages (Av.) of vmax/vmax activity modulator (vmax/vmaxA) and the standard deviations relating to the population (SD) were calculated. […]
# [7] = average over WT samples, 0.055 KIU/ml aprotinin
# [8] = without vs 0.055 KIU/ml aprotinin, WT samples, one value per sample
# [9] = average over MR I samples, 0.055 KIU/ml aprotinin
# [10] = without vs 0.055 KIU/ml aprotinin, MR I samples, one value per sample
substance,measurement,setting,value
aprotinin,vmax aprotinin,"[1]; 0.055 KIU/ml aprotinin, WT plasma samples 1:80, S-2444, one value per sample",13.82 mOD/min and 12.09 mOD/min and 8.81 mOD/min and 11.84 mOD/min
same,"inhibition of prourokinase-activating activity of FSAP, non-carrier sample versus heterozygous carrier sample","[1]; FIGS. 1 and 2, 0.036 and 0.055 KIU/ml final aprotinin concentration",substantially more strongly
same,Av. vmax0/vmax aprotinin,[1]; [7],2.01
same,Av. vmax0 − vmax aprotinin,[1]; [7],11.37 mOD/min
same,vmax0/vmax aprotinin,[1]; [8],1.90 and 1.78 and 2.41 and 1.95
same,vmax0 − vmax aprotinin,[1]; [8],12.42 mOD/min and 9.38 mOD/min and 12.44 mOD/min and 11.23 mOD/min
same,vmax aprotinin,"[2]; 0.055 KIU/ml aprotinin, MR I plasma samples 1:80, S-2444, one value per sample",2.00 mOD/min and 1.84 mOD/min and 2.45 mOD/min
same,Av. vmax0/vmax aprotinin,[2]; [9],1.43
same,Av. vmax0 − vmax aprotinin,[2]; [9],0.90 mOD/min
same,vmax0/vmax aprotinin,[2]; [10],1.52 and 1.35 and 1.41
same,vmax0 − vmax aprotinin,[2]; [10],1.04 mOD/min and 0.64 mOD/min and 1.01 mOD/min
same,vmax aprotinin,"[3]; 0.055 KIU/ml aprotinin, WT plasma samples 1:50, S-2288, one value per sample",6.90 mOD/min and 9.57 mOD/min and 7.52 mOD/min
same,"inhibition of amidolytic activity of FSAP, non-carrier sample versus heterozygous carrier sample","[3]; FIGS. 3 and 4, 0.036 and 0.055 KIU/ml final aprotinin concentration",considerably more strongly
same,Av. vmax0/vmax aprotinin,[3]; [7],1.48
same,Av. vmax0 − vmax aprotinin,[3]; [7],3.81 mOD/min
same,vmax0/vmax aprotinin,[3]; [8],1.45 and 1.47 and 1.51
same,vmax0 − vmax aprotinin,[3]; [8],3.09 mOD/min and 4.49 mOD/min and 3.86 mOD/min
same,vmax aprotinin,"[4]; 0.055 KIU/ml aprotinin, MR I plasma samples 1:50, S-2288, one value per sample",1.22 mOD/min and 0.94 mOD/min and 1.87 mOD/min
same,Av. vmax0/vmax aprotinin,[4]; [9],1.04
same,Av. vmax0 − vmax aprotinin,[4]; [9],0.07 mOD/min
same,vmax0/vmax aprotinin,[4]; [10],1.02 and 1.03 and 1.08
same,"inhibition of FSAP amidolytic activity after addition of aprotinin in a single reaction mixture, non-carrier versus heterozygous carrier","[5]; FIG. 5, aprotinin added at a reaction time of about one hour",inhibited more strongly in the sample of the non-carrier
same,WT/MRI quotient of Av. vmax/vmax A,"[5]; WT sample versus heterozygous MR I sample, aprotinin 2.95 KIU/ml, MAb about 60 μg/ml",1.35
same,WT Av. vmax/vmax A,"[5]; vmax before/after modulator added at about 60 min, aprotinin 2.95 KIU/ml, MAb about 60 μg/ml, three measurements, negative control 0.81",16.72
same,MRI Av. vmax/vmax A,[6],12.36
